In patent US7659081B2, “Determination of AM-binding proteins and the association of adrenomedullin (AM) therewith” (The United States of America as represented by the …, priority 1999, dated 2010):
Where no end group is shown, it is not given here.

Columns and labels:
AMBP-1 (factor H) = target: T1, AMBP-1 (factor H) (Homo sapiens, UniProt P08603); assay: Ligand blot competition of labeled AM binding to plasma AMBP-1; settings: 7 μM unlabeled peptide, preincubation 6 hr at 4° C.
T1 construct: Total proteins derived from human plasma (2 μl) were electrophoretically fractionated; from tissue; host or cells: human plasma
Description: Total proteins derived from human plasma (2 μl) were electrophoretically fractionated on 3-8% Tris-acetate gel (Novex, San Diego, Calif.) under non-reducing conditions. For the ligand blotting experiment, the proteins were transferred to a […] nitrocellulose membrane that was incubated for […] with 1% Nonidet P-40 (NP-40). Non-specific binding was further blocked with a 2 hr incubation in TBS containing 0.1% ATC. Incubations with 70 nM AM labeled with biotin, fluorescein, or DNP were carried out overnight at 4° C. in blocking buffer containing 0.1% TWEEN® 20 nonionic detergent. For biotin detection, the ligand blot was incubated with an avidin-biotin-peroxidase complex and the AEC reagent (Vector Laboratories, Inc., Burlingame, Calif.). For fluorescein and DNP, the ligand blots were incubated 1 hr at room temperature with rabbit anti-fluorescein or anti-DNP IgG, respectively, (1:1000 in incubation buffer; Molecular Probes, Inc.). Anti-rabbit antibody labeled with alkaline phosphatase (1:2000; Dako Corporation, Carpenteira, Calif.) was added for 0.5 hr, and the blot was developed using 4-nitro blue tetrazolium chloride/5-bromo-4-chloro-3-indolyl phosphate (NBT/BCIP) as the color-substrate solution (Roche Molecular Biochemicals, Indianapolis, Ind.).
Following this preincubation, labeled full-length AM was introduced and incubated overnight at 4° C.

factor H = factor H (Homo sapiens, UniProt P08603); assay: Multi-well plate competition of fluorescein-labeled AM binding to factor H; design: purchased Sigma; settings: 50 nM fluorescein-labeled AM; factor H 5 ng/well; increasing concentrations of unlabeled competitor
Description: Lane 1: horseradish peroxidase (5 μg), a glycosylated protein used as positive control; Lane 2: soybean trypsin inhibitor (5 μg), a non-glycosylated protein used as negative control; Lane 3: AMBP-1 (2 μg). […] Lane 1: isoelectric focusing markers; Lane 2: AMBP-1 (4 μg). […] Lane 1: AMBP-1 (100 ng); Lane 2: AMBP-1 (200 ng); Lane 3: commercially available human factor H (50 ng); Lane 4: human plasma (0.2 μl). […] Results represent one of two independent experiments. Values represent mean and standard deviation of three determinations. “B/B0” indicates the ratio of signals generated in the presence/absence of unlabeled competitor.
(§1) Alternatively, the AM/fH interaction was analyzed using a multi-well assay. In accordance with this assay, a 96-well polyvinylchloride (PVC) plate was coated with factor H (5 ng/well, Sigma, St. Louis, Mo.). The plate was blocked with a solution containing TBS, 0.1% ATC, and 0.1% TWEEN® 20 nonionic detergent, and then incubated with fluorescein-labeled AM (50 nM) for 2 hr. Prior to the development of the assay, the wells were incubated for various time periods with PBS or 3M NaSCN pH 7.4. Following this, the plate was washed and incubated with anti-fluorescein polyclonal antibody (1:1000, Molecular Probes) and ^125I-Protein A (Amersham Pharmacia Biotech). Radioactivity was determined using a gamma counter. FIG. 6B.

[1] = Storage of non-radioactively labeled AM; type: physicochemical; settings: stored at 4° C. for as long as 3 months
Description: Non-radioactive labeling of AM was accomplished by conjugating synthetic AM comprising amino acids 1-52 (Phoenix Pharmaceuticals, Inc., Mountainview, Calif.) with succinimidyl esters linked to biotin (Pierce Chemical Co., Rockford, Ill.), fluorescein (Molecular Probes, Inc., Eugene, Oreg.), or dinitrophenol (DNP; Molecular Probes, Inc.). Briefly, 100 μg of AM (16 μM) was dissolved in 1 ml of 50 mM sodium bicarbonate, pH 8.5, and the succinimidyl ester was added to yield a final molar concentration of 10:1 (linker:AM). The mixture was incubated with slow agitation for 1 hr at room temperature and the reaction was terminated by the addition of 0.1 M ethanolamine followed by another incubation for 1 hr. Unincorporated ligand was removed by extracting the AM using reverse phase SEP-PAK® C-18 solid-phase extraction cartridges (Waters, Milford, Mass.) and eluting the sample with acidic-isopropanol. The extract was lyophilized and reconstituted in 1 ml of TBS (0.05 M Tris-HCl, 0.15 M NaCl), 0.1% alkali-treated casein (ATC), 0.1% TWEEN® 20 nonionic detergent, and 0.05% TRITON® X-100 nonionic detergent, pH 7.4.

AM/fH complex = AM/fH complex (Homo sapiens, UniProt P08603); settings: 3M NaSCN
Description: as §1

T1 sequence (P08603 19-1231): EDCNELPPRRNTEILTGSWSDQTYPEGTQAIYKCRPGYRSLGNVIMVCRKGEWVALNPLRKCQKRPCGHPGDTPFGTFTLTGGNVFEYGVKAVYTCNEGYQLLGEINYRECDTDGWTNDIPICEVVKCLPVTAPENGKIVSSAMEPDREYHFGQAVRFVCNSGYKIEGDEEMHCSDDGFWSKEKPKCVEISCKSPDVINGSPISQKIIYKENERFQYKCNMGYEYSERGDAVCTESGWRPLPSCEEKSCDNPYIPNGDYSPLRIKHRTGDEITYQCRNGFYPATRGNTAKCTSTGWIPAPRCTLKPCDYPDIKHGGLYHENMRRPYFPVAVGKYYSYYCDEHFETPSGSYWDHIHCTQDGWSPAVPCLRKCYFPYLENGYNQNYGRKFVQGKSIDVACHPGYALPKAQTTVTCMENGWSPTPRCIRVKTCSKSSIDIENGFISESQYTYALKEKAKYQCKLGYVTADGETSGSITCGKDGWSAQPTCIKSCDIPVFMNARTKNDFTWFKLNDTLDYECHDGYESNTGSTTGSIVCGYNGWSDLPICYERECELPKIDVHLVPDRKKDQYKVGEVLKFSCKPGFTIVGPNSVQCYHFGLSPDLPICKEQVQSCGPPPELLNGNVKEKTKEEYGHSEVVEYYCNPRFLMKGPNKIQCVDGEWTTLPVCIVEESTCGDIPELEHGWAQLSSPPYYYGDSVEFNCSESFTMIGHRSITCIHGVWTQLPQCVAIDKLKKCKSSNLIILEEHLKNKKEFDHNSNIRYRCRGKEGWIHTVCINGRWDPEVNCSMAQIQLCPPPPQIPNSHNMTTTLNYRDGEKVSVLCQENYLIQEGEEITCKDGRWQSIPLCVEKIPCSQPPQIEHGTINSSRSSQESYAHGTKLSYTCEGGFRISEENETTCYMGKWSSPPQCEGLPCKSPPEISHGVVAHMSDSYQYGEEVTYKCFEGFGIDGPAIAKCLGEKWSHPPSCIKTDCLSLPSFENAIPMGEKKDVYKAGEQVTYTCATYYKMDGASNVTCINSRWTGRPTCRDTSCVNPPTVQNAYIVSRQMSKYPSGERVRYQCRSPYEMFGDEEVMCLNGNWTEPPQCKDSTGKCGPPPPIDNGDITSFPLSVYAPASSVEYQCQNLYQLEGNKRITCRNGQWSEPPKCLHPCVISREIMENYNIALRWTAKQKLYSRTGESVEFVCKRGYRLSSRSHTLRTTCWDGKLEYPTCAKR
factor H, sequence (P08603 19-1231): as above
AM/fH complex, sequence (P08603 19-1231, one chain of several): as the sequence (P08603 19-1231) above

Compound | Competition for labeled AM/AMBP-1 complex on ligand blot (AMBP-1 (factor H)) | also measured
amylin (KCNTATCATQRLANFLVHSSNNFGAILSSTNVGSNTY; not fully specified (C-terminus, bridges); cysteine pairing not given here; UniProt P10997 34-70, looked up) | only full-length AM was able to dissociate | –
insulin-like growth factor [IGF-1] | only full-length AM was able to dissociate | –
calcitonin gene-related peptides [CGRP] | only full-length AM was able to dissociate | Effect on binding of fluorescein-labeled AM to factor H-coated plate (factor H): not affected
proadrenomedullin N-terminal 20 peptide (ARLDVASEFRKKWNKWALSR) [PAMP] | only full-length AM was able to dissociate | Effect on binding of fluorescein-labeled AM to factor H-coated plate (factor H): not affected
Labeled AM: synthetic AM 1-52 conjugated via succinimidyl esters to biotin, fluorescein or dinitrophenol | – | Storage stability (activity) [1]: without significant loss of activity
AM13-52: AM truncated polypeptide | only full-length AM was able to dissociate | –
N#C[S-].[Na+] [NaSCN, sodium thiocyanate] | – | Dissociation of AM/fH complex (AM/fH complex): dissociated
AM34-52: AM truncated polypeptide (TDKDKDNVAPRSKISPQGY) | only full-length AM was able to dissociate | –
AM1-12: AM truncated polypeptide (YRQSMNNFQGLR) | only full-length AM was able to dissociate | –
AM16-21: AM truncated polypeptide (CRFGTC) | only full-length AM was able to dissociate | –
AM22-52: AM truncated polypeptide | only full-length AM was able to dissociate | –
